# Experimental data taken from PMC8583203, “DisA Restrains the Processing and Cleavage of Reversed Replication Forks by the RuvAB-RecU Resolvasome”.
# Key:
# [1] = biological target: T1, DisA (Bacillus subtilis, UniProt P37573 1-360); experiment: EMSA; conditions: 10 mM Mg2+; 0.2% glutaraldehyde; 50 mM Tris-HCl pH 7.5, 50 mM NaCl, 1 mM DTT, 0.05 mg/mL BSA, 5% glycerol, 1 or 10 mM MgCl2 or 5 mM EDTA, 15 min 37 C, 0.2 nM DNA; 0.2% glutaraldehyde before 6% …
# T1 sequence: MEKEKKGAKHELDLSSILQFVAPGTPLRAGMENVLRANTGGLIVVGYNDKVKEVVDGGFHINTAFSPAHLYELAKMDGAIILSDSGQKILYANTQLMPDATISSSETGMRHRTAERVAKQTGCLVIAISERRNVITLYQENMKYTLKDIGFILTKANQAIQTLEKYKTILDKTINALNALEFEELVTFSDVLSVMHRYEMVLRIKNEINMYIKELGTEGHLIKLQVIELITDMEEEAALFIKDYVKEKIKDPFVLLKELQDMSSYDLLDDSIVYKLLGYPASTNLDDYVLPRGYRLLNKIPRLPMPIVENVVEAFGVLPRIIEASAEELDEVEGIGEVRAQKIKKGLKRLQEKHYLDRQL
# [2] = biological target: T1, DisA; experiment: EMSA; 10 mM Mg2+; 0.2% glutaraldehyde; 50 mM Tris-HCl pH 7.5, 50 mM NaCl, 1 mM DTT, 0.05 mg/mL BSA, 5% glycerol, 1 or 10 mM MgCl2 or 5 mM EDTA, 15 min 37 C, 0.2 nM DNA; 0.2% glutaraldehyde before 6%; conditions: protein: recombinant, chain copies: 8, label: 32P (5' by gamma-32P)
# [3] = biological target: T2, DisA;RecU (Bacillus subtilis;Bacillus subtilis, UniProt P37573;P39792 1-360;1-206, |); experiment: DNase I footprinting; preformed at 1 mM Mg2+, then 10 mM Mg2+; coexistence judged likely; 50 mM Tris-HCl pH 7.5, 50 mM NaCl, 1 mM DTT, 0.05 mg/mL BSA, 5% glycerol, 1 or 10 mM MgCl2 or 5 mM EDTA, 15 min 37 C, 0.2 nM DNA; 0.2% glutaraldehyde before 6%; conditions: protein: recombinant;recombinant; tags: ;; chain copies: 8;2; label: 32P (5' by gamma-32P); four-way junction
# T2 sequence 1: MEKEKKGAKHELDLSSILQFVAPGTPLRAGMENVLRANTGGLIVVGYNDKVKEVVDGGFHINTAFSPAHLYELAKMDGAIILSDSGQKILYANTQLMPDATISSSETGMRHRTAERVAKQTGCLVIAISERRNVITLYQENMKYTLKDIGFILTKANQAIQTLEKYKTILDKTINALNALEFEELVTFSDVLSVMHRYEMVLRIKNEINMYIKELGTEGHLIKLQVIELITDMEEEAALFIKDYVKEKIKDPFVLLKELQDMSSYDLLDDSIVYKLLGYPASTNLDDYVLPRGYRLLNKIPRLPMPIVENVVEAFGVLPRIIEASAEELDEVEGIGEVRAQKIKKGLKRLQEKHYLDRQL
# T2 sequence 2: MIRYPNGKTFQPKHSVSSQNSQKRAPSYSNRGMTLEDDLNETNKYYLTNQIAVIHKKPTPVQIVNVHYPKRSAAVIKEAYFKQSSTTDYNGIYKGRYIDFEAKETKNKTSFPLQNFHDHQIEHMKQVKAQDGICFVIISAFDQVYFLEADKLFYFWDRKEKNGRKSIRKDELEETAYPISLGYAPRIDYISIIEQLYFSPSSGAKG
# [4] = biological target: T3, DisA;RuvA;RuvB (Bacillus subtilis;Bacillus …, UniProt P37573;O05392;O32055 1-360;1-201;1-334, ||); experiment: DNase I footprinting; 10 mM Mg2+; 5 mM ATPgS; either order of addition; 50 mM Tris-HCl pH 7.5, 50 mM NaCl, 1 mM DTT, 0.05 mg/mL BSA, 5% glycerol, 1 or 10 mM MgCl2 or 5 mM EDTA, 15 min 37 C, 0.2 nM DNA; 0.2% glutaraldehyde before 6%; conditions: protein: recombinant;recombinant;native; tags: ;;; label: 32P (5' by gamma-32P); four-way junction
# T3 sequence 1: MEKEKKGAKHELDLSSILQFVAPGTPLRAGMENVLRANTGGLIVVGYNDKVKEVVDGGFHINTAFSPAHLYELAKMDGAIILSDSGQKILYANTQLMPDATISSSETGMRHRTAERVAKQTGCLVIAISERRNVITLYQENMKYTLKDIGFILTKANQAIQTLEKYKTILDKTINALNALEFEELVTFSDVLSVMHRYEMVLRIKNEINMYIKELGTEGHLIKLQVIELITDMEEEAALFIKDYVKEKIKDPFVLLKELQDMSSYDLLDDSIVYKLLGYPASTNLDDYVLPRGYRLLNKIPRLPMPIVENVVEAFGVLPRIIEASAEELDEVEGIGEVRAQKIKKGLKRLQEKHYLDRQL
# T3 sequence 2: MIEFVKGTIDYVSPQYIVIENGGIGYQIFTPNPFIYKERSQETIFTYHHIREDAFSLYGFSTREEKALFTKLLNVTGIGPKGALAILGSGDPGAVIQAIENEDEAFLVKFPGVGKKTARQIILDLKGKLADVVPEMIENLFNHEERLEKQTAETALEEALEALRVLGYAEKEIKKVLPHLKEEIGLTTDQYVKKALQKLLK
# T3 sequence 3: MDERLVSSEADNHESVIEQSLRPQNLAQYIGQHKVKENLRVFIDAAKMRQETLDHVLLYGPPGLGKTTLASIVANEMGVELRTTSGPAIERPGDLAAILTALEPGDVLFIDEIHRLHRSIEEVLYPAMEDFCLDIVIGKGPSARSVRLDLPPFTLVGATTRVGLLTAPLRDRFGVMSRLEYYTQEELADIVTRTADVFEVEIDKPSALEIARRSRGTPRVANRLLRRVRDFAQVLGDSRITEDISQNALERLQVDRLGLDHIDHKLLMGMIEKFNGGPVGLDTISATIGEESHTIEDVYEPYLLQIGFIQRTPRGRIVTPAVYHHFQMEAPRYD
# [5] = biological target: T1, DisA; experiment: EMSA; 10 mM Mg2+; 500 uM ATP; 50 mM Tris-HCl pH 7.5, 50 mM NaCl, 1 mM DTT, 0.05 mg/mL BSA, 5% glycerol, 1 or 10 mM MgCl2 or 5 mM EDTA, 15 min 37 C, 0.2 nM DNA; 0.2% glutaraldehyde before 6%; conditions: protein: recombinant; chain copies: 8; label: 32P (5' by gamma-32P); four-way junction
# [6] = biological target: T4, RuvA;RuvB (Bacillus subtilis;Bacillus subtilis, UniProt O05392;O32055 1-201;1-334, |); experiment: DNase I footprinting; 10 mM Mg2+; 5 mM ATPgS; ~40-nt footprint; 50 mM Tris-HCl pH 7.5, 50 mM NaCl, 1 mM DTT, 0.05 mg/mL BSA, 5% glycerol, 1 or 10 mM MgCl2 or 5 mM EDTA, 15 min 37 C, 0.2 nM DNA; 0.2% glutaraldehyde before 6%; conditions: protein: recombinant;native; tags: ;; chain copies: 8;12; label: 32P (5' by gamma-32P); four-way junction
# T4 sequence 1: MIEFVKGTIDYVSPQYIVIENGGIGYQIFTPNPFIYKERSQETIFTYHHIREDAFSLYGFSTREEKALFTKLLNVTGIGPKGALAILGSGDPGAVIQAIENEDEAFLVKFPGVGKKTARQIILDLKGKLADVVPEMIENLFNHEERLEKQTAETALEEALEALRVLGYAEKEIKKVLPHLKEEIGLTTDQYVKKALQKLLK
# T4 sequence 2: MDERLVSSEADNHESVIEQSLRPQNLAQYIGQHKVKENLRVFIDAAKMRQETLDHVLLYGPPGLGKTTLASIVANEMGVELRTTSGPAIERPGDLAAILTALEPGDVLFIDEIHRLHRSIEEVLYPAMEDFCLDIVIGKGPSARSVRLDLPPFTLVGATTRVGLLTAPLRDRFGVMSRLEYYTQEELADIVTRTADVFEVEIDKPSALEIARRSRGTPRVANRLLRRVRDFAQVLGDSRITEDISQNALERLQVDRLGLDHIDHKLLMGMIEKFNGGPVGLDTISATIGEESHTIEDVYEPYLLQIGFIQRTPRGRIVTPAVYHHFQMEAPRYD
# [7] = biological target: T5, RecU (Bacillus subtilis, UniProt P39792 1-206); experiment: EMSA; 1 mM Mg2+; 50 mM Tris-HCl pH 7.5, 50 mM NaCl, 1 mM DTT, 0.05 mg/mL BSA, 5% glycerol, 1 or 10 mM MgCl2 or 5 mM EDTA, 15 min 37 C, 0.2 nM DNA; 0.2% glutaraldehyde before 6%; conditions: protein: recombinant; chain copies: 2; label: 32P (5' by gamma-32P); four-way junction
# T5 sequence: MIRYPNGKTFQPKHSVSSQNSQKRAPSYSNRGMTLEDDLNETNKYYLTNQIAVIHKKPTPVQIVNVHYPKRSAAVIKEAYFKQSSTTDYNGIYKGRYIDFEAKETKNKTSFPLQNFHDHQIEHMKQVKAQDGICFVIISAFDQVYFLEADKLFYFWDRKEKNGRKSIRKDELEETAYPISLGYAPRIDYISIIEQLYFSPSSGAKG
# [8] = biological target: T6, RuvA (Bacillus subtilis, UniProt O05392 1-201); experiment: as above; conditions: protein: recombinant; chain copies: 8; label: 32P (5' by gamma-32P); four-way junction
# T6 sequence: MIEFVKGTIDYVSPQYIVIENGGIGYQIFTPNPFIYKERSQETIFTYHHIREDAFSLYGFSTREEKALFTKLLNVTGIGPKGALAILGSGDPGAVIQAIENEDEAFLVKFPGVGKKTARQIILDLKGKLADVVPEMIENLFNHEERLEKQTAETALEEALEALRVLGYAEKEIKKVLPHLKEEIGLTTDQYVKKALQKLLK
# [9] = biological target: T7, DisA;RuvA (Bacillus subtilis;Bacillus subtilis, UniProt P37573;O05392 1-360;1-201, |); experiment: EMSA; 1 mM Mg2+; new R+A complex; 50 mM Tris-HCl pH 7.5, 50 mM NaCl, 1 mM DTT, 0.05 mg/mL BSA, 5% glycerol, 1 or 10 mM MgCl2 or 5 mM EDTA, 15 min 37 C, 0.2 nM DNA; 0.2% glutaraldehyde before 6%; conditions: protein: recombinant;recombinant; tags: ;; chain copies: 8;8; label: 32P (5' by gamma-32P); four-way junction
# T7 sequence 1: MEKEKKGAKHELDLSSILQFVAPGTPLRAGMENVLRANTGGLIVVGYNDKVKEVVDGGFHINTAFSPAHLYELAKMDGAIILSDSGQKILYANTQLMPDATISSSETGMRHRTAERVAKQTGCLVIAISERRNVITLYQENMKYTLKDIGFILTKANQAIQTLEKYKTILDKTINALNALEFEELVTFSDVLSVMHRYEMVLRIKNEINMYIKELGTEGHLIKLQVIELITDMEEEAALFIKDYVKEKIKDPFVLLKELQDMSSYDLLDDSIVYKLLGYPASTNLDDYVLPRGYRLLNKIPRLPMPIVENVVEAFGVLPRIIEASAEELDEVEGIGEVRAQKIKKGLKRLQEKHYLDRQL
# T7 sequence 2: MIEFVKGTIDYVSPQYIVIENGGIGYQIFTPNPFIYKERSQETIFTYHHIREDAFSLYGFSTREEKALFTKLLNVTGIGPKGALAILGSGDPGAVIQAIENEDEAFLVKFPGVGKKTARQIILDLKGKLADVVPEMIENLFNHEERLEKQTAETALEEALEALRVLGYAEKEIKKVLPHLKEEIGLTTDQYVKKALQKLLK
molecule,measurement,setting,value
ssDNA (oligonucleotide not stated),Kd,[1],3.3 nM
dsDNA (80-bp) (dsDNA) DNA 1: CGCAGCGACAGGAACCTCGAGGAATTCAACCACCGCTCAACTCAACTGCAGTCTGACTCGAGGTTCCTGTCGCTTGCG DNA 2: CGCAAGCGACAGGAACCTCGAGTCTAGACTGCAGTTGAGTTGAGCGGTGGTTGAATTCCTCGAGTTCCTGTCGCTTGCG,Kd,"[2]; duplex, printed strands not exactly complementary (small deletions/insertion)",2.6 ± 0.3 nM
HJ-J3 DNA (fixed Holliday junction) (structured_DNA) DNA 1: CGCAAGCGACAGGAACCTCGAGAAGCTTCCGGTAGCAGCCTGAGCGGTGGTTGAATTCCTCGAGGTTCCTGTCGCTTGCG DNA 2: CGCAGCGACAGGAACCTCGAGGAATTCAACCACCGCTCAACTCAACTGCAGTCTGACTCGAGGTTCCTGTCGCTTGCG DNA 3: CGCAAGCGACAGGAACCTCGAGTCTAGACTGCAGTTGAGTCCTTGCTAGGACGGATCCCTCAGGTTCCTGTCGCTTGCG DNA 4: CGCAAGCGACAGGAACCTCGAGGGATCCGTCCTAGCAAGGGGCTGCTACCGGAAGCTTCTCGAGGTTCCTGTCGCTTGCG,binding result,[3],binds
same,binding result,[4],binds
same,Kd,[5],5.5 ± 0.3 nM
same,binding result,[6],binds
same,Kd,[2]; four-way junction,3 ± 0.5 nM
same,Kd,[7],0.6 ± 0.2 nM
same,Kd,[8],10 ± 2 nM
same,binding result,[9],binds
flayed DNA (170/173) (structured_DNA) DNA 1: AGACGCTGCCGAATTCTGGCTTGGATCTGATGCTGTCTAGAGGCCTCCACTATGAAATCG DNA 2: AGCTCATAGATCGATAGTCTCTAGACAGCATCAGATCCAAGCCAGAATTCGGCAGCGTCT,Kd,"[2]; fork 1:2, unpaired 3' end of 170 and 5' end of 173",3.2 ± 0.2 nM
